Experimental data reported in the supplement of paper PMC7125110.
± gives the standard error. For some of these results: This sample holds only a part of the variants without activity.

B1: glmS ribozyme (parent)
chain: AUAAAAGCGCCAGAACUACAGAAAUGUAGUUGACGAGGAGGAGGUUUAUCGAAUUUUCGGCGGAUGCCUCCAAA

Tests used:
Conditions in all cases: with glucosamine-6-phosphate
[1] = variants of: B1; assay: kcat; higher = faster cleavage; RNA array
In short: (§1)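 In situ transcription by E. coli RNA polymerase produced barcoded ribozyme variants on sequenced MiSeq chips, and a hybridised Cy3 probe tracked them at 37 °C. Glucosamine-6-phosphate was flowed in at 40 μM to 10 mM in HEPES/KCl/Mg(OAc)2 buffer. kcat and KM were taken from weighted Michaelis–Menten fits of kobs values from exponential decay fits.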

[2] = variants of: B1; assay: KM; higher = weaker cofactor use; RNA array
In short: as §1

[3] = variants of: B1; assay: self-cleavage kobs at 640 uM GlcN6P; higher = faster cleavage; RNA array
In short: as §1

[4] = variants of: B1; assay: self-cleavage kobs at 2500 uM GlcN6P; higher = faster cleavage; RNA array
In short: as §1

[5] = variants of: B1; assay: self-cleavage kobs at 10000 uM GlcN6P; higher = faster cleavage; RNA array
In short: as §1

[6] = variants of: B1; assay: self-cleavage kobs at 40 uM GlcN6P; higher = faster cleavage; RNA array
In short: as §1

[7] = variants of: B1; assay: self-cleavage kobs at 160 uM GlcN6P; higher = faster cleavage; RNA array
In short: as §1

| Variant | kcat [1] [s⁻¹] | KM [2] [µM] | self-cleavage kobs at 640 uM GlcN6P [3] [s⁻¹] | self-cleavage kobs at 2500 uM GlcN6P [4] [s⁻¹] | self-cleavage kobs at 10000 uM GlcN6P [5] [s⁻¹] | self-cleavage kobs at 40 uM GlcN6P [6] [s⁻¹] | self-cleavage kobs at 160 uM GlcN6P [7] [s⁻¹] |
| --- | --- | --- | --- | --- | --- | --- | --- |
| A6U C70U | 0.000253 ± 4.2e-05 | 1200 ± 440 | 8.14e-05 ± 9.8e-06 | 0.00021 ± 2.2e-05 | 0.000197 ± 2.7e-05 | – | – |
| A12G G37U | < 1e-05 | – | – | – | < 1e-05 | – | – |
| G37A U69C | 0.0003 ± 5.9e-05 | 1170 ± 530 | 0.000116 ± 2.2e-05 | 0.000167 ± 3.3e-05 | 0.000325 ± 5.8e-05 | – | – |
| U56G U65G | 0.00371 ± 0.00083 | 7360 ± 2500 | 0.000301 ± 6e-05 | 0.000811 ± 0.00023 | 0.00218 ± 0.00031 | 3.29e-05 ± 1.6e-05 | – |
| A14C U31A | 0.0083 ± 0.0041 | – | 0.00413 ± 0.0019 | 0.00676 ± 0.0026 | – | 0.000559 ± 0.00011 | 0.00135 ± 0.00031 |
| C16G G51C | < 1e-05 | – | – | – | – | < 1e-05 | – |
| U31G A53C | 0.00293 ± 0.00056 | 2500 ± 770 | 0.000646 ± 0.00015 | 0.00165 ± 0.00028 | 0.00219 ± 0.00037 | 3.19e-05 ± 1.2e-05 | 0.000223 ± 5.6e-05 |
| A15U A52U C68A | 2.12e-05 ± 5.2e-06 | – | – | – | < 1e-05 | – | – |
| G40A C50U U54C C68U | < 1e-05 | – | – | – | < 1e-05 | < 1e-05 | < 1e-05 |
| U30A C67U | 0.00166 ± 0.00065 | – | 0.00036 ± 6.4e-05 | 0.00118 ± 0.00017 | 0.00106 ± 0.00034 | 5.62e-05 ± 1.2e-05 | 0.000105 ± 2.1e-05 |
| G32C A48U | < 1e-05 | – | – | – | – | < 1e-05 | – |
| G9A C34G C67A | < 1e-05 | – | – | < 1e-05 | – | – | – |
| A42G U57G | 4.9e-05 ± 1.3e-06 | 514 ± 77 | – | 4.17e-05 ± 1.4e-05 | 4.59e-05 ± 1.4e-05 | < 1e-05 | < 1e-05 |
| A12C G59A | < 1e-05 | – | – | – | – | < 1e-05 | < 1e-05 |
| A15C U56A G63C C70A | 5.44e-05 ± 1.8e-05 | – | – | 7.34e-05 ± 3.6e-05 | – | – | 5.41e-05 ± 2.2e-05 |
| G37A U49G | 7.59e-05 ± 1.4e-05 | – | – | 4.94e-05 ± 1.8e-05 | 6.04e-05 ± 1.3e-05 | – | – |
| U31G G62U C71G | < 1e-05 | – | – | – | – | – | – |

| Variant | kcat [1] [s⁻¹] | KM [2] [µM] | self-cleavage kobs at 640 uM GlcN6P [3] [s⁻¹] | self-cleavage kobs at 2500 uM GlcN6P [4] [s⁻¹] | self-cleavage kobs at 10000 uM GlcN6P [5] [s⁻¹] | self-cleavage kobs at 40 uM GlcN6P [6] [s⁻¹] | self-cleavage kobs at 160 uM GlcN6P [7] [s⁻¹] |
| --- | --- | --- | --- | --- | --- | --- | --- |
| G38A G59C | < 1e-05 | – | < 1e-05 | – | < 1e-05 | < 1e-05 | – |
| G40A G41A U55G | 8.3e-05 ± 7.3e-06 | 578 ± 220 | 4.12e-05 ± 1.4e-05 | 7.85e-05 ± 2.1e-05 | 7.52e-05 ± 1.5e-05 | – | – |
| U46A U47C | 0.00192 ± 0.00044 | 2240 ± 840 | 0.00034 ± 5.6e-05 | 0.00121 ± 0.00021 | 0.00157 ± 0.00019 | 5.61e-05 ± 1.2e-05 | 0.000141 ± 2.8e-05 |
| A14C G37C | < 1e-05 | – | < 1e-05 | – | < 1e-05 | < 1e-05 | – |
| G32U U45A | 0.00202 ± 0.00071 | 3440 ± 1700 | 0.000279 ± 6.8e-05 | 0.000762 ± 0.00034 | 0.00155 ± 0.0003 | 0.000103 ± 3.9e-05 | 9.56e-05 ± 2.1e-05 |
| C11A C50U A64U | < 1e-05 | – | – | – | – | – | – |
| G43A | 9.3e-05 ± 6.9e-06 | 1560 ± 420 | 2.21e-05 ± 1.7e-06 | 6.37e-05 ± 1.8e-06 | 7.88e-05 ± 1.4e-06 | – | – |
| A12G A39C | 0.000267 ± 1.7e-05 | 2130 ± 300 | 6.42e-05 ± 1.1e-05 | 0.000144 ± 1.2e-05 | 0.00022 ± 2.2e-05 | – | – |
| U31C U65A | 0.000435 ± 5.4e-05 | 2000 ± 480 | 0.000114 ± 1.8e-05 | 0.000217 ± 3.2e-05 | 0.000385 ± 5.2e-05 | – | 3.17e-05 ± 1.3e-05 |
| U54A C58G | 0.000169 ± 2.8e-05 | 3660 ± 1700 | – | 7.4e-05 ± 2.3e-05 | 0.000123 ± 2.1e-05 | < 1e-05 | – |
| C67U C70U | 0.000418 ± 1.7e-05 | 1370 ± 110 | 0.000132 ± 9.5e-06 | 0.000264 ± 2e-05 | 0.000377 ± 3e-05 | – | 4.68e-05 ± 6.2e-06 |
| U30C G32A | 0.00241 ± 0.00034 | 3840 ± 740 | 0.000321 ± 4.3e-05 | 0.000932 ± 8.8e-05 | 0.00181 ± 0.00026 | – | 0.000106 ± 1.2e-05 |
| A39G U65G | 0.0131 ± 0.0026 | 3200 ± 790 | 0.00161 ± 0.00039 | 0.00553 ± 0.0018 | 0.0103 ± 0.0015 | 0.000177 ± 2.2e-05 | 0.00068 ± 0.00014 |
| C58U C70U | 0.000128 ± 1.9e-05 | 4650 ± 1400 | – | 4.75e-05 ± 5.9e-06 | 8.61e-05 ± 8.8e-06 | – | – |
| A14C G66U | 0.000181 ± 3.7e-05 | – | 8.12e-05 ± 1.4e-05 | 9.62e-05 ± 2e-05 | 0.000191 ± 2.6e-05 | – | – |
| G32A A52C | < 1e-05 | 128 ± 28 | < 1e-05 | – | < 1e-05 | < 1e-05 | – |
